Results reported in publication PMC9569133 (Biochemistry, 2021).

Biological target: the molecule itself
Experiment: native MS

B1: Kir3.2, full-length, human (natural protein, UniProt P48051 1-423, looked up)
chain: MAKLTESMTNVLEGDSMDQDVESPVAIHQPKLPKQARDDLPRHISRDRTKRKIQRYVRKDGKCNVHHGNVRETYRYLTDIFTTLVDLKWRFNLLIFVMVYTVTWLFFGMIWWLIAYIRGDMDHIEDPSWTPCVTNLNGFVSAFLFSIETETTIGYGYRVITDKCPEGIILLLIQSVLGSIVNAFMVGCMFVKISQPKKRAETLVFSTHAVISMRDGKLCLMFRVGDLRNSHIVEASIRAKLIKSKQTSEGEFIPLNQTDINVGYYTGDDRLFLVSPLIISHEINQQSPFWEISKAQLPKEELEIVVILEGMVEATGMTCQARSSYITSEILWGYRFTPVLTLEDGFYEVDYNSFHETYETSTPSLSAKELAELASRAELPLSWSVSSKLNQHAELETEEEEKNLEEQTERNGDVANLENESKV
stoichiometry N: 4
